From publication PMC4072508, “Genome-Wide Prediction and Validation of Peptides That Bind Human Prosurvival Bcl-2 Proteins” (PLoS Computational Biology, 2014)

T1: Mcl-1, Q07820
T1 chain: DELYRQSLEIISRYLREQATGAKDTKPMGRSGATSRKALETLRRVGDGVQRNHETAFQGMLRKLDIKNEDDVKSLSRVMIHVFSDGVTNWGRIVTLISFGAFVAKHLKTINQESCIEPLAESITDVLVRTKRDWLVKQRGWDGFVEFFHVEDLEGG


Target: T1, Mcl-1, Q07820
Experiment: peptide SPOT array, c-Myc-tagged receptor at 1 uM or 100 nM, anti-c-Myc-Cy3

Point of comparison: TYEKPQVAEALQRAARIAISVIEFKP [RTDR1], SPOT signal as a fraction of Bim BH3's signal on the same receptor and array 0.02. Against it:
- MKLRNLFTKFIRKFGFELVKRLLPEE [RRP12] — higher, 0.14
- LGKRTSSVQALKRSARELIEGSRDDS [DST] — higher, 0.05
- RDHDEFIINLIRGLGGNLNMKSRLEF [DYNC2H1] — higher, 0.03
- DLDSNQAAMVLIRLSHLLSEKPEDKG [TBRG4] — the same, 0.02
- DIARSTLAKIIEDLGVHFLLYVLKEL [UTP20] — the same, 0.02
- AEIETEYSRNLEKLAERFMAKTRSTK [SRGAP1] — higher, 0.11
- PEVRKVLADVLQDIANDNISSADYTQ [ARSG] — lower, 0.01
- RLKVMPFAGVLEHIGGIMEIQLEENP [SLITRK2] — the same, 0.02
- LFHLLEFCLLLNQFSRAVAAKWKDDV [RLN1] — the same, 0.02
- EDLKENLAAGIKQIAEFLGFFLTGEQ [SULT6B1] — the same, 0.02
- AASDFRTSVVLNHLAEKWFPGQRERA [LONRF1] — higher, 0.07
- EDLQQVIASVLRNLSWRADVNSKKTL [APC] — higher, 0.07
- DRFEGYCIDLLKELAHILGFSYEIRL [GRIK3] — the same, 0.02
- AEIEMDYSRNLEKLAERFLAKTRSTK [SRGAP2] — higher, 0.08
- GADHPDVAKQLNNLALLCQNQGKFED [KLC3] — lower, 0.01
- TTLEMEFAKGLQKIAHNCRQSVMQEP [HMHA1] — the same, 0.02
- AVLSPQSADNLKQVARSLFLLGKHKA [BBS4] — higher, 0.2
- QDTEQFVATVLQAASRDLDWEVRAQG [C7orf27] — the same, 0.02
- VLLLSSSVNSLRKAAHEALQDFQKYK [DNAH8] — higher, 0.19
- CYRGQLAASVLRQISRELGPQEPTGS [FAM129C] — higher, 0.07
- PESTKRSALCIFKIARKLLFLFRIKE [UBE3B] — higher, 0.1
